Earlier results, collected in PMC8509922.
Values joined by “and” are separate entries in the source; they are usually repeats but may differ in a detail not shown here. Identical values can stand only once. Like-named read-outs stand apart in the source and are kept apart here. Blank lines part the entries; values can stand above or below the substance they belong to.

What was measured:
BmpR1 (Homo sapiens) [1] = molecular target: BmpR1 (Homo sapiens) (UniProt P36894)
Acvr1 (Homo sapiens) [2] = molecular target: Acvr1 (Homo sapiens) (UniProt Q04771)
Acvr1 (Homo sapiens) [3] = molecular target: Acvr1 (Homo sapiens) (UniProt Q04771); remark: listed apart in the source
BmpR1 (Homo sapiens) [4] = molecular target: BmpR1 (Homo sapiens) (UniProt P36894); remark: listed apart in the source

Chain of UniProt Q04771 (Q04771 21-123): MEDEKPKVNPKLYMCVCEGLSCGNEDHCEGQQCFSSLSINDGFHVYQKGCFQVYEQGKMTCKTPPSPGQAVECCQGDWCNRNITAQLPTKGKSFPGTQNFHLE
Chain of UniProt P36894 (P36894 24-152): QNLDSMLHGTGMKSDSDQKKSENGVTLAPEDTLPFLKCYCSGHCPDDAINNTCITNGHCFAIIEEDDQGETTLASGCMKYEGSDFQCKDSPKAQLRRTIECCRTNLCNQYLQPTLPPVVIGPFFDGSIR

Kd (BmpR1 (Homo sapiens) [1]): 56 nM | Kd (Acvr1 (Homo sapiens) [2]): 500 nM
Substance: Bmp7 (from UniProt P18075)

Kd (Acvr1 (Homo sapiens) [3]): 512 nM and 1020 nM
Substance: Bmp2/7 heterodimer (from UniProt P12643)

Kd (BmpR1 (Homo sapiens) [4]): 0.8 nM
Substance: Bmp2 (from UniProt P12643)
